Results: patent publication US20160115223A1

target: Aβ42 fibers (UniProt P05067); experiment: cell-based or functional assay
Sequence (P05067 672-713 limits assumed): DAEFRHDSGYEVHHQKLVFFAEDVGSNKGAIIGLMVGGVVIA

| EC50, cellulose acetate filter retardation assay (disaggregation) | Substance |
| --- | --- |
| 0.1 µM | N1-N2-hIgG1-Fc fusion protein (SEQ ID NO:1) (from UniProt O34714 1-385) |

target: Aβ42 fibers (UniProt P05067); experiment: ELISA, Aβ42 fibers on plate; IC50(variant)/IC50(SEQ ID NO: 3)

| Substance | IC50 Relative to SEQ ID NO: 3 |
| --- | --- |
| N1-N2-human IgG Fc fusion protein of SEQ ID NO: 3 with D178G (from UniProt P69168 19-274) | 0.2 |
| N1-N2-human IgG Fc fusion protein of SEQ ID NO: 3 with D178Q | 0.6 |
| N1-N2-human IgG Fc fusion protein of SEQ ID NO: 3 with F141E (from UniProt P69168 19-274) | 0.2 |
| N1-N2-human IgG Fc fusion protein of SEQ ID NO: 3 with G48H | 1.8 |
| N1-N2-human IgG Fc fusion protein of SEQ ID NO: 3 with G48R (from UniProt P69168 19-274) | 1.9 |
| N1-N2-human IgG Fc fusion protein of SEQ ID NO: 3 with G48S | 1.2 |
| N1-N2-human IgG Fc fusion protein of SEQ ID NO: 3 with G48T | 1 |
| N1-N2-human IgG Fc fusion protein of SEQ ID NO: 3 with M135D (from UniProt P69168 19-274) | 0.5 |
| N1-N2-human IgG Fc fusion protein of SEQ ID NO: 3 with M135N (from UniProt P69168 19-274) | 0.3 |
| N1-N2-human IgG Fc fusion protein of SEQ ID NO: 3 with M135R (from UniProt P69168 19-274) | 0.1 |
| N1-N2-human IgG Fc fusion protein of SEQ ID NO: 3 with M176G | 0.3 |
| N1-N2-human IgG Fc fusion protein of SEQ ID NO: 3 with M176H | 0.4 |
| N1-N2-human IgG Fc fusion protein of SEQ ID NO: 3 with M176K (from UniProt P69168 19-274) | 0.2 |
| N1-N2-human IgG Fc fusion protein of SEQ ID NO: 3 with M176N (from UniProt P69168 19-274) | 0.5 |
| N1-N2-human IgG Fc fusion protein of SEQ ID NO: 3 with M176R | 0.2 |
| N1-N2-human IgG Fc fusion protein of SEQ ID NO: 3 with R140D | 0.3 |
| N1-N2-human IgG Fc fusion protein of SEQ ID NO: 3 with R140H | 0.2 |
| N1-N2-human IgG Fc fusion protein of SEQ ID NO: 3 with S173G (from UniProt P69168 19-274) | 0.2 |
| N1-N2-human IgG Fc fusion protein of SEQ ID NO: 3 with T51G (from UniProt P69168 19-274) | 0.8 |
| N1-N2-human IgG Fc fusion protein of SEQ ID NO: 3 with T51K | 2.5 |
| N1-N2-human IgG Fc fusion protein of SEQ ID NO: 3 with T51Q | 0.8 |
| N1-N2-human IgG Fc fusion protein of SEQ ID NO: 3 with T51R | 2 |
| N1-N2-human IgG Fc fusion protein of SEQ ID NO: 3 with T56H | 0.77 |
| N1-N2-human IgG Fc fusion protein of SEQ ID NO: 3 with W181G | 0.5 |
| N1-N2-human IgG Fc fusion protein of SEQ ID NO: 3 with Y54H | 0.3 |
| N1-N2-human IgG Fc fusion protein of SEQ ID NO: 3 with Y54P | 0.07 |

More lines, now with the values ahead:

| IC50 Relative to SEQ ID NO: 3 | Substance |
| --- | --- |
| 0.3 | N1-N2-human IgG Fc fusion protein of SEQ ID NO: 3 with D178S |
| 0.4 | N1-N2-human IgG Fc fusion protein of SEQ ID NO: 3 with D178T |
| 0.2 | N1-N2-human IgG Fc fusion protein of SEQ ID NO: 3 with F141D |
| 1.1 | N1-N2-human IgG Fc fusion protein of SEQ ID NO: 3 with G48K (from UniProt P69168 19-274) |
| 0.4 | N1-N2-human IgG Fc fusion protein of SEQ ID NO: 3 with M135A (from UniProt P69168 19-274) |
| 0.2 | N1-N2-human IgG Fc fusion protein of SEQ ID NO: 3 with M135G |
| 0.1 | N1-N2-human IgG Fc fusion protein of SEQ ID NO: 3 with M135H (from UniProt P69168 19-274) |
| 0.2 | N1-N2-human IgG Fc fusion protein of SEQ ID NO: 3 with R140A |
| 0.3 | N1-N2-human IgG Fc fusion protein of SEQ ID NO: 3 with R140E |
| 0.2 | N1-N2-human IgG Fc fusion protein of SEQ ID NO: 3 with R140G (from UniProt P69168 19-274) |
| 0.4 | N1-N2-human IgG Fc fusion protein of SEQ ID NO: 3 with S173P |
| 1.5 | N1-N2-human IgG Fc fusion protein of SEQ ID NO: 3 with T51H (from UniProt P69168 19-274) |
| 0.5 | N1-N2-human IgG Fc fusion protein of SEQ ID NO: 3 with T51N |
| 0.2 | N1-N2-human IgG Fc fusion protein of SEQ ID NO: 3 with T51P |
| 0.1 | N1-N2-human IgG Fc fusion protein of SEQ ID NO: 3 with T56G |
| 0.8 | N1-N2-human IgG Fc fusion protein of SEQ ID NO: 3 with T56R (from UniProt P69168 19-274) |
| 0.87 | N1-N2-human IgG Fc fusion protein of SEQ ID NO: 3 with W181H |
| 0.3 | N1-N2-human IgG Fc fusion protein of SEQ ID NO: 3 with W181K |
